# Measured values from the Human Domainome abundance scans (Beltran et al. 2025).
# ± gives the uncertainty stated by the source.
# B1: GAS2-like protein 1, residues 209 to 276; numbered along this chain, Q99501 (parent)
# chain: DELVREILGRCTCPDQFPMIKVSEGKYRVGDSSLLIFVRVLRSHVMVRVGGGWDTLEHYLDKHDPCRC
# Variants of: B1
# Assay: abundance fitness (aPCA) (normalised: wild type 0, dead -1); higher = more abundant; growth selection in yeast, the domain comes from the species named
# Conditions: Homo sapiens
row,Variant,abundance fitness
1,DELVTEILGRCTCPDQFPMIKVSEGKYRVGDSSLLIFVRVLRSHVMVRVGGGWDTLEHYLDKHDPCRC [R5T],-0.059 ± 0.053
2,DELVHEILGRCTCPDQFPMIKVSEGKYRVGDSSLLIFVRVLRSHVMVRVGGGWDTLEHYLDKHDPCRC [R5H],-0.15 ± 0.094
3,DELVFEILGRCTCPDQFPMIKVSEGKYRVGDSSLLIFVRVLRSHVMVRVGGGWDTLEHYLDKHDPCRC [R5F],-0.257 ± 0.11
4,DELVWEILGRCTCPDQFPMIKVSEGKYRVGDSSLLIFVRVLRSHVMVRVGGGWDTLEHYLDKHDPCRC [R5W],-0.126 ± 0.053
5,DELVQEILGRCTCPDQFPMIKVSEGKYRVGDSSLLIFVRVLRSHVMVRVGGGWDTLEHYLDKHDPCRC [R5Q],0.084 ± 0.063
6,DELEREILGRCTCPDQFPMIKVSEGKYRVGDSSLLIFVRVLRSHVMVRVGGGWDTLEHYLDKHDPCRC [V4E],-0.463 ± 0.071
7,DELSREILGRCTCPDQFPMIKVSEGKYRVGDSSLLIFVRVLRSHVMVRVGGGWDTLEHYLDKHDPCRC [V4S],-0.836 ± 0.12
8,DELFREILGRCTCPDQFPMIKVSEGKYRVGDSSLLIFVRVLRSHVMVRVGGGWDTLEHYLDKHDPCRC [V4F],-0.35 ± 0.072
9,DELHREILGRCTCPDQFPMIKVSEGKYRVGDSSLLIFVRVLRSHVMVRVGGGWDTLEHYLDKHDPCRC [V4H],-0.855 ± 0.2
10,DELAREILGRCTCPDQFPMIKVSEGKYRVGDSSLLIFVRVLRSHVMVRVGGGWDTLEHYLDKHDPCRC [V4A],-0.804 ± 0.095
11,DELKREILGRCTCPDQFPMIKVSEGKYRVGDSSLLIFVRVLRSHVMVRVGGGWDTLEHYLDKHDPCRC [V4K],-0.685 ± 0.23
12,DELTREILGRCTCPDQFPMIKVSEGKYRVGDSSLLIFVRVLRSHVMVRVGGGWDTLEHYLDKHDPCRC [V4T],-0.833 ± 0.17
13,DELMREILGRCTCPDQFPMIKVSEGKYRVGDSSLLIFVRVLRSHVMVRVGGGWDTLEHYLDKHDPCRC [V4M],-0.34 ± 0.071
14,DELIREILGRCTCPDQFPMIKVSEGKYRVGDSSLLIFVRVLRSHVMVRVGGGWDTLEHYLDKHDPCRC [V4I],0.049 ± 0.043
15,DELLREILGRCTCPDQFPMIKVSEGKYRVGDSSLLIFVRVLRSHVMVRVGGGWDTLEHYLDKHDPCRC [V4L],-0.388 ± 0.053
16,DELQREILGRCTCPDQFPMIKVSEGKYRVGDSSLLIFVRVLRSHVMVRVGGGWDTLEHYLDKHDPCRC [V4Q],-1.01 ± 0.24
17,DELCREILGRCTCPDQFPMIKVSEGKYRVGDSSLLIFVRVLRSHVMVRVGGGWDTLEHYLDKHDPCRC [V4C],-0.717 ± 0.18
18,DELDREILGRCTCPDQFPMIKVSEGKYRVGDSSLLIFVRVLRSHVMVRVGGGWDTLEHYLDKHDPCRC [V4D],-0.888 ± 0.15
19,DELNREILGRCTCPDQFPMIKVSEGKYRVGDSSLLIFVRVLRSHVMVRVGGGWDTLEHYLDKHDPCRC [V4N],-0.876 ± 0.18
20,DELRREILGRCTCPDQFPMIKVSEGKYRVGDSSLLIFVRVLRSHVMVRVGGGWDTLEHYLDKHDPCRC [V4R],-0.71 ± 0.12

row,Variant,abundance fitness
1,DELWREILGRCTCPDQFPMIKVSEGKYRVGDSSLLIFVRVLRSHVMVRVGGGWDTLEHYLDKHDPCRC [V4W],-0.796 ± 0.34
2,DELGREILGRCTCPDQFPMIKVSEGKYRVGDSSLLIFVRVLRSHVMVRVGGGWDTLEHYLDKHDPCRC [V4G],-0.966 ± 0.32
3,DELVRHILGRCTCPDQFPMIKVSEGKYRVGDSSLLIFVRVLRSHVMVRVGGGWDTLEHYLDKHDPCRC [E6H],-0.452 ± 0.1
4,DELVRRILGRCTCPDQFPMIKVSEGKYRVGDSSLLIFVRVLRSHVMVRVGGGWDTLEHYLDKHDPCRC [E6R],-0.165 ± 0.045
5,DELVRTILGRCTCPDQFPMIKVSEGKYRVGDSSLLIFVRVLRSHVMVRVGGGWDTLEHYLDKHDPCRC [E6T],-0.141 ± 0.055
6,DELVRFILGRCTCPDQFPMIKVSEGKYRVGDSSLLIFVRVLRSHVMVRVGGGWDTLEHYLDKHDPCRC [E6F],-0.708 ± 0.15
7,DELVRNILGRCTCPDQFPMIKVSEGKYRVGDSSLLIFVRVLRSHVMVRVGGGWDTLEHYLDKHDPCRC [E6N],-0.431 ± 0.23
8,DELVRMILGRCTCPDQFPMIKVSEGKYRVGDSSLLIFVRVLRSHVMVRVGGGWDTLEHYLDKHDPCRC [E6M],-0.309 ± 0.069
9,DELVRKILGRCTCPDQFPMIKVSEGKYRVGDSSLLIFVRVLRSHVMVRVGGGWDTLEHYLDKHDPCRC [E6K],-0.151 ± 0.057
10,DELVRGILGRCTCPDQFPMIKVSEGKYRVGDSSLLIFVRVLRSHVMVRVGGGWDTLEHYLDKHDPCRC [E6G],-0.347 ± 0.074
11,DELVRQILGRCTCPDQFPMIKVSEGKYRVGDSSLLIFVRVLRSHVMVRVGGGWDTLEHYLDKHDPCRC [E6Q],-0.071 ± 0.053
12,DELVRVILGRCTCPDQFPMIKVSEGKYRVGDSSLLIFVRVLRSHVMVRVGGGWDTLEHYLDKHDPCRC [E6V],-0.642 ± 0.1
13,DELVRSILGRCTCPDQFPMIKVSEGKYRVGDSSLLIFVRVLRSHVMVRVGGGWDTLEHYLDKHDPCRC [E6S],-0.205 ± 0.044
14,DELVRLILGRCTCPDQFPMIKVSEGKYRVGDSSLLIFVRVLRSHVMVRVGGGWDTLEHYLDKHDPCRC [E6L],-0.446 ± 0.042
15,DELVRCILGRCTCPDQFPMIKVSEGKYRVGDSSLLIFVRVLRSHVMVRVGGGWDTLEHYLDKHDPCRC [E6C],-0.701 ± 0.14
16,DELVRIILGRCTCPDQFPMIKVSEGKYRVGDSSLLIFVRVLRSHVMVRVGGGWDTLEHYLDKHDPCRC [E6I],-0.521 ± 0.15
17,DELVRWILGRCTCPDQFPMIKVSEGKYRVGDSSLLIFVRVLRSHVMVRVGGGWDTLEHYLDKHDPCRC [E6W],-0.821 ± 0.093
18,DELVRYILGRCTCPDQFPMIKVSEGKYRVGDSSLLIFVRVLRSHVMVRVGGGWDTLEHYLDKHDPCRC [E6Y],-0.694 ± 0.19
19,DELVRPILGRCTCPDQFPMIKVSEGKYRVGDSSLLIFVRVLRSHVMVRVGGGWDTLEHYLDKHDPCRC [E6P],-0.864 ± 0.1
20,DELVRDILGRCTCPDQFPMIKVSEGKYRVGDSSLLIFVRVLRSHVMVRVGGGWDTLEHYLDKHDPCRC [E6D],-0.136 ± 0.071
